Our source for the % of 125I-UCHT1 bound, difference in IC50 against UCHT1-CRM9, protein synthesis inhibition and protein synthesis (% of controls), no serum, 1 x 10^-10 M on Jurkat cells (% of controls) values is EP0830146B1.

The target in test [1] is human CD3 on Jurkat cells (human) (UniProt P07766). As to the kind of experiment: competition with 125I-UCHT1 tracer on Jurkat cells; competitor at 1 nM.
For test [2] the target is unchanged. Description: competition with 125I-UCHT1 tracer on Jurkat cells; competitor at 100 nM.
The target is the same in test [3]. As to the kind of experiment: cell-based or functional assay.

On to UCHT1 (antibody), for which the % of 125I-UCHT1 bound amounted to 80% in test [1] and 0% in test [2].
sFv-DT390 (from UniProt P00588 1-390): in test [3], the difference in IC50 against UCHT1-CRM9, protein synthesis inhibition was 16 fold and the protein synthesis (% of controls), no serum, 1 x 10^-10 M on Jurkat cells (% of controls) worked out at 18.
In the case of scUCHT1 (from UniProt P01871 106-453), the % of 125I-UCHT1 bound stood at 80% in test [1] and 0% in test [2].
